Results taken from US20200056171A1.

Target: sodium taurocholate cotransporting polypeptide (NTCP) (UniProt Q14973)
Assay: cell-based or functional assay

Chain of UniProt Q14973 (Q14973 whole entry): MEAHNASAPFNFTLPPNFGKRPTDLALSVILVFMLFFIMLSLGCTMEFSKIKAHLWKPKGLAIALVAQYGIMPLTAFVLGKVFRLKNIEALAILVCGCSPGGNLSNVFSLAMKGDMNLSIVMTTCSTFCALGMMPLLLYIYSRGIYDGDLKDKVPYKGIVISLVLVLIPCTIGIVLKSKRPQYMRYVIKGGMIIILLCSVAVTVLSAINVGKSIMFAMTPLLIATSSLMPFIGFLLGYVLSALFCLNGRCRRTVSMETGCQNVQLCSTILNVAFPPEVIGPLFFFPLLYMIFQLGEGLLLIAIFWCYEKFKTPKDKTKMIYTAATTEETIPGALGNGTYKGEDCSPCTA

Myrcludex B (peptide)
DsRed-positive CreC/CIR cells by FACS, day 7 after rHBV-CreN infection (MOI=250) with MyrB: < 1% | DsRed-positive CreC/CIR cells by flow cytometry, day 10 after rHBV-CreN infection (MOI=300) with MyrB: < 1%
